Source: US20110104167A1, “Compositions and Methods for Diagnosing and Treating Insulin Resistance” (YEDA RESEARCH AND DEVELOPMENT CO. LTD., priority 2004, published 2011)

Assays:
Fao cells [1] = test: Insulin-induced Tyr phosphorylation of Myc-IRS-1 in adenovirus-infected Fao cells; assay type: cell-based, rat; conditions: 60 min insulin
Method: FIGS. 3a-b show Insulin-induced Tyr phosphorylation of IRS-1^7A in Fao cells. FIG. 3a—Fao cells were infected with Ad-Myc-IRS-1^WT or Ad-Myc-IRS-1^7A at 7×10^7 PFU/ml. Following 48 hours, the cells were starved in serum-free RPMI medium for 16 h and were then treated with insulin for the indicated times. Cell extracts were prepared and samples (1 mg) were subjected to immunoprecipitation (IP) with anti-Myc antibodies. Immunocomplexes were resolved on 7.5% SDS-PAGE and immunoblotted with anti-pY antibodies. In parallel, samples (100 μg) of total cell extracts were resolved on 7.5% SDS-PAGE and immunoblotted with anti-Myc antibodies. FIG. 3b—The bands corresponding to anti-pY/total Myc-IRS-1 were quantified by densitometry and are presented as a bar graph. Results are of a representative experiment carried out in duplicate.
FIGS. 11a-c show the effects of TPA and anisomycin on insulin-stimulated Tyr phosphorylation of IRS-1^WT, IRS-1^7A and IRS-1^408A. Fao cells were infected with Adeno-myc-IRS-1 wild type (WT); the 7A mutant; or the S408A mutant at a titer of 4-6×10^7 PFU/ml. Following 48 hours the cells were deprived of serum for 16 h, and were then treated for 60 min with 200 nM TPA (FIG. 11a), or 50 ng/ml anisomycin (FIG. 11b), followed by treatment with 100 nM insulin for the indicated times. […]

Fao cells [2] = test: Effect of inducers of insulin resistance on insulin-stimulated Tyr phosphorylation of IRS-1 in Fao cells; assay type: cell-based, rat
Method: FIGS. 5a-c show the effects of TPA and anisomycin on insulin-induced Tyr phosphorylation of IRS-1^7A in Fao cells. Fao cells were infected with Ad-Myc-IRS-1^WT or Ad-Myc-IRS-1^7A at 7×10^7 PFU/ml. Following 48 hours the cells were deprived of serum for 16 h, and were then treated for 60 min with 200 nM TPA (FIG. 5a); 50 ng/ml of anisomycin (FIG. 5b) or 1 μg/ml of anisomycin (FIG. 5c). This was followed by treatment with 100 nM insulin for 2 min (FIG. 5a) or for the indicated times (FIGS. 5b-c). Cell extracts were prepared, and samples (1 mg) were subjected to immunoprecipitation (IP) with anti-Myc antibodies (FIG. 5a). Immunocomplexes were resolved on 7.5 SDS-PAGE and were immunoblotted with the indicated antibodies. Alternatively, total cell extracts (FIGS. 5b-c) were resolved on 7.5% SDS-PAGE and immunoblotted with the indicated antibodies. Results of a representative of four experiments are presented. The results of two independent experiments done in duplicates were quantified (FIG. 5a, right panel).
FIGS. 6a-b show the dose dependent effect of Palmitic acid on Insulin-induced Tyr phosphorylation of IRS-1 mutants in Fao cells. Fao cells were infected with Ad-Myc-IRS-1^WT or Ad-Myc-IRS-1^7A at 7×10^7 PFU/ml. Following 24 hours the cells were deprived of serum for 12 h, and were then further incubated for 12 h with or without the indicated concentrations of palmitic acid in serum free medium prior to being stimulated with 100 nM insulin for the indicated times. Cell extracts (100 μg) were resolved on 7.5% SDS-PAGE and immunoblotted with anti-PY and anti-Myc antibodies. The results of two independent experiments done in duplicates were quantified.
FIGS. 11a-c show the effects of TPA and anisomycin on insulin-stimulated Tyr phosphorylation of IRS-1^WT, IRS-1^7A and IRS-1^408A. Fao cells were infected with Adeno-myc-IRS-1 wild type (WT); the 7A mutant; or the S408A mutant at a titer of 4-6×10^7 PFU/ml. Following 48 hours the cells were deprived of serum for 16 h, and were then treated for 60 min with 200 nM TPA (FIG. 11a), or 50 ng/ml anisomycin (FIG. 11b), followed by treatment with 100 nM insulin for the indicated times. Cell extracts were prepared, samples (1 mg) were subjected to immunoprecipitation (IP) with anti-Myc antibodies. Immunocomplexes were resolved on 7.5% SDS-PAGE and immunoblotted with anti-PY or anti IRS-1 antibodies.
Infection of Fao cells with adenovirus—Fao cells were grown in RPMI medium containing 10% FCS. At 70% confluence cells were infected with adenoviruses harboring the gene of interest at a titer of 7 10^7 PFU/ml. After incubation for 2 h hours at 37° C., the virus-containing medium was diluted 1:5 in fresh RPMI medium. After 24 h the medium was replaced with a fresh RPMI medium containing 10% FCS. […]

B1: IRS-1^408A: mouse IRS-1 with Ser408 mutated to Ala (protein)
chain: MEQKLISEEDLNMASPPPDTDGFSDVRKVGYLRKPKSMHKRFFVLRAASEAGGPARLEYYENEKKWRHKSSAPKRSIPLESCFNINKRADSKNKHLVALYTRDEHFAIAADSEAEQDSWYQALLQLHNRAKAHHDGAGGGCGGSCSGSSGVGEAGEDLSYDTGPGPAFKEVWQVILKPKGLGQTKNLIGIYRLCLTSKTISFVKLNSEAAAVVLQLMNIRRCGHSENFFFIEVGRSAVTGPGEFWMQVDDSVVAQNMHETILEAMRAMSDEFRPRSKSQSSSSCSNPISVPLRRHHLNNPPPSQVGLTRRSRTESITATSPASMVGGKPGSFRVRASSDGEGTMSRPASVDGSPVSPSTNRTHAHRHRGSSRLHPPLNHSRSIPMPSSRCSPSATSPVSLSSSSTSGHGSTSDCLFPRRSAASVSGSPSDGGFISSDEYGSSPCDFRSSFRSVTPDSLGHTPPARGEEELSNYICMGGKGASTLAAPNGHYILSRGGNGHRYIPGANLGTSPALPGDEAAGAADLDNRFRKRTHSAGTSPTISHQKTPSQSSVASIEEYTEMMPAAYPPGGGSGGRLPGYRHSAFVPTHSYPEEGLEMHHLERRGGHHRPDTSNLHTDDGYMPMSPGVAPVPSNRKGNGDYMPMSPKSVSAPQQIINPIRRHPQRVDPNGYMMMSPSGSCSPDIGGGSSSSSSISAAPSGSSYGKPWTNGVGGHHTHALPHAKPPVESGGGKLLPCTGDYMNMSPVGDSNTSSPSECYYGPEDPQHKPVLSYYSLPRSFKHTQRPGEPEEGARHQHLRLSSSSGRLRYTATAEDSSSSTSSDSLGGGYCGARPESSLTHPHHHVLQPHLPRKVDTAAQTNSRLARPTRLSLGDPKASTLPRVREQQQQQQSSLHPPEPKSPGEYVNIEFGSGQPGYLAGPATSRSSPSVRCPPQLHPAPREETGSEEYMNMDLGPGRRATWQESGGVELGRIGPAPPGSATVCRPTRSVPNSRGDYMTMQIGCPRQSYVDTSPVAPVSYADMRTGIAAEKASLPRPTGAAPPPSSTASSSASVTPQGATAEQATHSSLLGGPQGPGGMSAFTRVNLSPNHNQSAKVIRADTQGCRRRHSSETFSAPTRAGNTVPFGAGAAVGGSGGGGGGGSEDVKRHSSASFENVWLRPGDLGGVSKESAPVCGAAGGLEKSLNYIDLDLAKEHSQDCPSQQQSLPPPPPHQPLGSNEGNSPRRSSEDLSNYASISFQKQPEDRQ
How did the “Tyr phosphorylation level after prolonged insulin treatment (Example 9)” value (Fao cells [1]) turn out when B1 was run?
The value was “reduced to a similar extent”.

What about the “protection against the inhibitory effects of anisomycin” value (Fao cells [2]; 50 ng/ml anisomycin 60 min) of the same molecule?
The value was “could not protect”.

What about the “protection from the inhibitory effects of TPA on insulin-stimulated Tyr phosphorylation” value (Fao cells [2]; 200 nM TPA 60 min) of the same molecule?
Its value is “partially prevented”.
